Assay results taken from patent US11382907B2, “Methods and compositions for treating aging-associated impairments using CCR3-inhibitors” (Alkahest, Inc., priority 2017, dated 2022).

Tests used:
Format in all cases: in vivo
[1] = tested on: two-month-old C57Bl/6 mice treated with rmCCL11; test: Open Field test in young mice given recombinant mouse CCL11; conditions: 2-month-old mice; rmCCL11 i.p.; Compound 1 30 mg/kg p.o. b.i.d., 2 weeks
Description: Open Field is used to evaluate general locomotor activity and exploratory behavior in a novel environment. Mice are brought to the experimental room for at least 30 min for acclimation to the experimental room conditions (dim lighting) prior to testing. The testing arena consists of a 50 cm×50 cm square arena. Mice are placed in the center of an arena and tracked for 15 minutes. Time spent in the peripheral and centers zones is analyzed, along with rearing behavior. 70% ethanol is used to clean all surfaces between trials.
[…] During the last week of treatment, mice were subjected to behavior testing prior to perfusion on the last day of treatment. All mice received 5 consecutive days of BrdU injection at 150 mg/kg IP immediately prior to treatment start. […]

[2] = tested on: two-month-old C57Bl/6 mice treated with rmCCL11; test: Y-maze test in young mice given recombinant mouse CCL11; conditions: 2-month-old mice; rmCCL11 i.p.; Compound 1 30 mg/kg p.o. b.i.d.
Description: A large Y-maze test assesses short-term memory of the familiarity of a specific context. Mice are brought to the experimental room for at least 30 min of acclimation to the experimental room conditions (dim lighting) prior to testing. For the initial training trial, the mouse is placed at the end of one arm of a large Y-maze designated “start arm” (arm length: 15 inches). The third arm of the maze is blocked off, allowing the mouse to explore two of the three arms freely (“start arm” and “familiar arm”) for 5 min. Each arm contains spatial cues. One hour later, the mouse is placed back into the maze in the “start arm” and allowed to explore all three arms with the third arm unblocked (“novel arm”). Movements in and out of each arm are tracked using automated tracking software (CleverSys). Testing is performed under dim lighting, and the apparatus is cleaned with 70% ethanol between trials.
Two-month-old C57Bl/6 mice were dosed with either vehicle control or Compound 1 by oral gavage twice daily for 18 days. During the last week of treatment, mice were subjected to behavior testing prior to perfusion on the last day of treatment. All mice received 5 consecutive days of BrdU injection at 150 mg/kg IP immediately prior to treatment start. […]

[3] = tested on: two-month-old C57Bl/6 mice treated with rmCCL11; test: Barnes maze test in young mice given recombinant mouse CCL11; conditions: 2-month-old mice; rmCCL11 i.p.; Compound 1 30 mg/kg p.o. b.i.d.
Excerpt: A modified Barnes maze was used to assess spatial working/episodic like learning and memory. The Barnes maze apparatus consists of a 122 cm diameter circular platform with 40 escape holes, each with a diameter of 5 cm placed along three rings of varying distances from the center of the platform. An escape box is attached to one of the holes and all holes are left uncovered. Bright lights and a fan are trained on the maze to provide adverse stimuli to encourage escape. Visual cues are placed on all four sides of the maze. Mice are given a series of 4 or 5 trials with inter-trial intervals of approximately 10 min, and the maximum duration of each trial is 90 or 120 sec. For each trial, mice are placed in the center of the maze. After 10 seconds, mice are allowed to explore, and the trial is ended if the mouse has found and entered an escape box before the end of the trial. Mice that cannot find the escape box are led to it and allowed to enter and given 30 sec to remain before being returned to its home cage. Training is done for 4 days. Data that is recorded and analyzed include velocity, escape latency, and distance moved.
Two-month-old C57Bl/6 mice were dosed with either vehicle control or Compound 1 by oral gavage twice daily for 18 days. During the last week of treatment, mice were subjected to behavior testing prior to perfusion on the last day of treatment. […]

B1: rmCCL11: Recombinant mouse CCL11 (eotaxin-1), injected i.p. to impair behaviour in young mice (protein, UniProt P48298 24-97, looked up)
Eotaxin: HPGSIPTSCCFIMTSKKIPNTLLKSYKRITNNRCTLKAIVFKTRLGKEICADPKKKWVQDATKHLDQKLQTPKP
anxiety in the Open Field [1]: significantly worsened anxiety | memory in the Y-maze [2]: impaired memory in the Y-maze | memory in the Barnes maze [3]: impaired memory in the Barnes maze
